Results from PMC6092394.

Key:
[1] = target: TRPC4β, CFP- or YFP-tagged (UniProt Q9QUQ5); assay: FRET or BRET; three-cube FRET in living cells expressing Gαq (WT)-YFP, M3 and TRPC1α with TRPC4β-CFP or CFP-TRPC5; after stimulation with 100 μM CCh
[2] = target: TRPC5, CFP- or YFP-tagged (UniProt Q9QX29); assay: as above
UniProt Q9QX29, sequence (Q9QX29 whole entry): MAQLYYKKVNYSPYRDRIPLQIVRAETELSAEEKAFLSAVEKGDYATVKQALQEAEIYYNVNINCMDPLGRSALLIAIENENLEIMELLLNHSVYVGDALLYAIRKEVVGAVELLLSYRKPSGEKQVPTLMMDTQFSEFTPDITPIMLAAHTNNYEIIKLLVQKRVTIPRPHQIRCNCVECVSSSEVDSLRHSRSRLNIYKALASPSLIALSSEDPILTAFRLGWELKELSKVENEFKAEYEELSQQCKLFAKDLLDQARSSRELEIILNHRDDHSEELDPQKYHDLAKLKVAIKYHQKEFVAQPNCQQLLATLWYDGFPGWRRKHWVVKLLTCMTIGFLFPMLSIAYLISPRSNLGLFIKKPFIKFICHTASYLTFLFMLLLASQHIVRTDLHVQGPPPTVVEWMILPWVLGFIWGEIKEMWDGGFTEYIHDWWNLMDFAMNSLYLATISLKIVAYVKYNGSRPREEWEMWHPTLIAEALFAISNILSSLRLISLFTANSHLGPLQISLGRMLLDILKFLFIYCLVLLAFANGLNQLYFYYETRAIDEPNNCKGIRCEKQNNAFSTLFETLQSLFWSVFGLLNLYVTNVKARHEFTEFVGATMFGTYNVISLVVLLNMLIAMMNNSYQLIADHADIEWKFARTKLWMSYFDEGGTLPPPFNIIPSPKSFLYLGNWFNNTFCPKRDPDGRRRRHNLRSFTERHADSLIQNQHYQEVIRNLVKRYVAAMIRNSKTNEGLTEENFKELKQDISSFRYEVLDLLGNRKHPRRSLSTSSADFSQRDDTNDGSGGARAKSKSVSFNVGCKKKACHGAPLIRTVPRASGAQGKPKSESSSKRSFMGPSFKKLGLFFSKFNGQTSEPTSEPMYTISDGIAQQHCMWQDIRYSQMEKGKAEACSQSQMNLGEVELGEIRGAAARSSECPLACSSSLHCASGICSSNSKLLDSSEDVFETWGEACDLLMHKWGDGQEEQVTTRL

UniProt Q9QUQ5, sequence (Q9QUQ5 other isoform, or with tags, fused parts or gaps): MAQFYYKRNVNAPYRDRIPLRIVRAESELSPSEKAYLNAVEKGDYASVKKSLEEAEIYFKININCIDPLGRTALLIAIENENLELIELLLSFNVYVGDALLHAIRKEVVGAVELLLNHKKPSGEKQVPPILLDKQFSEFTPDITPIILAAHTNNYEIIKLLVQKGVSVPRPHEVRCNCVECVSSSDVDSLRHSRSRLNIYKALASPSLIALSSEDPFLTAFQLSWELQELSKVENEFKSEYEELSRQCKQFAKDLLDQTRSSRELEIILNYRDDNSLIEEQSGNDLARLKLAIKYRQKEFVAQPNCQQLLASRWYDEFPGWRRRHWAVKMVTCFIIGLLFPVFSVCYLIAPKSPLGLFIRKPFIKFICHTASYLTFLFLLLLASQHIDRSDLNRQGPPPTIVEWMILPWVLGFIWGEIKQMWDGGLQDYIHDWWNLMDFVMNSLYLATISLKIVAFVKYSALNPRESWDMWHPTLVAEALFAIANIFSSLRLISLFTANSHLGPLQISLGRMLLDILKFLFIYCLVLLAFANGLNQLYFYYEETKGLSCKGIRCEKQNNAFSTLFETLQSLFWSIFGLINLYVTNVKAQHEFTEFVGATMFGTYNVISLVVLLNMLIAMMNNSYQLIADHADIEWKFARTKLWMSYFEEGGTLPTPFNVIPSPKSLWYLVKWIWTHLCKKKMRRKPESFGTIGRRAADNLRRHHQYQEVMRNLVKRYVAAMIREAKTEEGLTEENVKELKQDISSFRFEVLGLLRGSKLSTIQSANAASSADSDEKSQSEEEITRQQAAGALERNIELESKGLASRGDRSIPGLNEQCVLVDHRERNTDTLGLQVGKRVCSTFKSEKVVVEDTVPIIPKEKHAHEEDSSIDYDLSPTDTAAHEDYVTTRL

- FRET efficiency (after 100 μM CCh) [1]: 8.8%
- FRET efficiency (after 100 μM CCh) [2]: 15.9%
Substance: Gαq (WT)-YFP (from UniProt P50148 1-359) (natural protein)
